Literature values, collected in paper PMC7689933.

Target: His15 (UniProt position 33, AAMKRHGLDNY)
Experiment: NMR
Conditions: not stated (presumably native, ligand-free lysozyme)

**Q.** With “Lysozyme C (hen egg white lysozyme) (Gallus gallus)” as the substance, how does the pKa read?
**A.** 5.35 ± 0.07
